According to paper PMC8560851 (Scientific Reports, 2021):
Positions count from the first letter of the chain named.

Legend:
[1] = biological target: T1, VEGF antigen as co-crystallised with the bH1-Fab H3 variants (Homo sapiens, VEGF-A residues 1-110 of …); test: crystal structure; co-crystallization of bH1-Fab H3 variants with the VEGF antigen and X-ray diffraction; methods in Shi et al. (in preparation); conditions: both partners purified
T1 construct: VEGF-A, human
T1 chain: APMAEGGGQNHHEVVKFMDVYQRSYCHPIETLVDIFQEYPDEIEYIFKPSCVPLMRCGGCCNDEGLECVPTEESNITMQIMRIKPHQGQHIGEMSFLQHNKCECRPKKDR

[2] = biological target: T2, Full-length isoform 165 of human VEGF-A (Homo sapiens, VEGF-A isoform 165, UniProt P15692-4); test: SPR; Biacore T200, 25 °C, PBS with 0.05% Tween 20 and 3.4 mM EDTA; VEGF-A amine-coupled to a CM-5 chip; Fab injected in single cycle kinetics with five increasing concentrations; double referenced; fit to a 1:1 Langmuir binding model; conditions: both partners purified
T2 construct: VEGF-A isoform 165, human; Immobilised by amine coupling for SPR; Made in HEK cells, so probably the secreted 165-residue form without signal peptide (surmise); source: HEK, recombinant, purified
T2 sequence (P15692 other isoform, or with tags, fused parts or gaps): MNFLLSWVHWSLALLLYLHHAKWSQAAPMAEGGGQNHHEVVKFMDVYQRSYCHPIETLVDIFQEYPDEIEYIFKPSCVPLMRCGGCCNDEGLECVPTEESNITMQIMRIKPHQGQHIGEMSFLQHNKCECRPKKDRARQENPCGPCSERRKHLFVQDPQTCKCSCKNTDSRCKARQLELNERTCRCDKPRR

B1: bH1 Fab H3 variant 14_0130 (Fab, V domains shown)
VH: EVQLVESGGGLVQPGGSLRLSCAASGFNIKDTYIHWVRQAPGKGLEWVARIYPTNGYTRYADSVKGRFTISADTSKNTAYLQMNSLRAEDTAVYYCAKLGIGYYYYGMDVWGQGTLVTVSS
VL: DIQMTQSPSSLSASVGDRVTITCRASQDIPRSISGYVAWYQQKPGKAPKLLIYWGSYLYSGVPSRFSGSGSGTDFTLTISSLQPEDFATYYCQQHYTTPPTFGQGTKVEIK
notes: also in PDB 7KF1; also called design 14_0130; source: CHO-3E7, co-transfected, purified from supernatant (HisTrap IMAC, SEC Superdex-200)
- binding result [1]: binds
- Kd [2]: 2.8 µM

B2: bH1 Fab H3 variant 14_0480 (Fab, V domains shown)
VH: EVQLVESGGGLVQPGGSLRLSCAASGFNIKDTYIHWVRQAPGKGLEWVARIYPTNGYTRYADSVKGRFTISADTSKNTAYLQMNSLRAEDTAVYYCARGLERSGNYYLDYWGQGTLVTVSS
VL: B1 VL
notes: source: CHO-3E7, co-transfected, purified from supernatant (HisTrap IMAC, SEC Superdex-200)
- Kd [2]: 2.72 µM

B3: bH1 Fab H3 variant 14_0490 (Fab, V domains shown)
VH: B1 VH with K98R, L99G, G100N, I101E, G102A, Y103G
VL: B1 VL
notes: as for B2
- Kd [2]: 3.59 µM

B4: bH1 Fab H3 variant 14_0905 (Fab, V domains shown)
VH: B1 VH with A97V, K98R, L99G, I101Y, G102L, Y103R, Y104D
VL: B1 VL
notes: as for B2
- Kd [2]: 5 µM

B5: bH1 Fab H3 variant 14_0622 (Fab, V domains shown)
VH: B2 VH with G99N, L100G, E101G, R102D, G104Y, N105S, Y106G, L108F, D109Q, Y110H
VL: B1 VL
notes: as for B2
- Kd [2]: 4.97 µM

B6: bH1 Fab H3 variant 15_0485 (Fab, V domains shown)
VH: EVQLVESGGGLVQPGGSLRLSCAASGFNIKDTYIHWVRQAPGKGLEWVARIYPTNGYTRYADSVKGRFTISADTSKNTAYLQMNSLRAEDTAVYYCARHGVRGYYYYYMDVWGQGTLVTVSS
VL: B1 VL
notes: as for B2
- Kd [2]: 0.31 µM

B7: bH1 Fab H3 variant 13_0346 (Fab, V domains shown)
VH: EVQLVESGGGLVQPGGSLRLSCAASGFNIKDTYIHWVRQAPGKGLEWVARIYPTNGYTRYADSVKGRFTISADTSKNTAYLQMNSLRAEDTAVYYCARGGSFYYYYMDVWGQGTLVTVSS
VL: B1 VL
notes: also in PDB 7KF0; also called design 13_0346; source: CHO-3E7, co-transfected, purified from supernatant (HisTrap IMAC, SEC Superdex-200)
- binding result [1]: binds
- Kd [2]: 0.08 µM

B8: bH1 Fab H3 variant 16_0325 (Fab, V domains shown)
VH: EVQLVESGGGLVQPGGSLRLSCAASGFNIKDTYIHWVRQAPGKGLEWVARIYPTNGYTRYADSVKGRFTISADTSKNTAYLQMNSLRAEDTAVYYCARGGAVAGTGVYYFDYWGQGTLVTVSS
VL: B1 VL
notes: also in PDB 7KEZ; also called design 16_0325; source: CHO-3E7, co-transfected, purified from supernatant (HisTrap IMAC, SEC Superdex-200)
- binding result [1]: binds

B9: bH1 Fab H3 variant 16_0102 (Fab, V domains shown)
VH: EVQLVESGGGLVQPGGSLRLSCAASGFNIKDTYIHWVRQAPGKGLEWVARIYPTNGYTRYADSVKGRFTISADTSKNTAYLQMNSLRAEDTAVYYCAKGWEGTTVTLTPVDYWGQGTLVTVSS
VL: B1 VL
notes: as for B2
- Kd [2]: 50 µM

B10: bH1 Fab H3 variant 14_0129 (Fab, V domains shown)
VH: B1 VH with I101G, G102Q, Y103G, Y104S, G107H, M108F, V110Y
VL: B1 VL
notes: as for B2
- Kd [2]: 3.48 µM

B11: parental bH1 Fab (Fab, V domains shown)
VH: not shown
VL: B1 VL
notes: heavy chain of the bH1 Fab; light chain of the bH1 Fab; also called bH1 antibody; parental antibody; source: CHO-3E7, co-transfected, purified from supernatant (HisTrap IMAC, SEC Superdex-200)
- Kd [2]: 0.1 µM

B12: bH1 Fab H3 variant 16_0460 (Fab, V domains shown)
VH: B8 VH with G99P, G100S, A101G, V102G, A103S, G104R, T105S, G106W, V107L
VL: B1 VL
notes: also called design 16_0460; source: CHO-3E7, co-transfected, purified from supernatant (HisTrap IMAC, SEC Superdex-200)
- Kd [2]: 4.5 µM

B13: bH1 Fab H3 variant 12_0327 (Fab, V domains shown)
VH: EVQLVESGGGLVQPGGSLRLSCAASGFNIKDTYIHWVRQAPGKGLEWVARIYPTNGYTRYADSVKGRFTISADTSKNTAYLQMNSLRAEDTAVYYCARGRKYSSSFDYWGQGTLVTVSS
VL: B1 VL
notes: also in PDB 7KF2; also called design 12_0327; source: CHO-3E7, co-transfected, purified from supernatant (HisTrap IMAC, SEC Superdex-200)
- binding result [1]: binds
- Kd [2]: 1.6 µM

B14: bH1 Fab H3 variant 14_0472 (Fab, V domains shown)
VH: B2 VH with L100I, E101A, R102V, S103A, N105A, L108F
VL: B1 VL
notes: as for B2
- Kd [2]: 59 µM

B15: bH1 Fab H3 variant 14_0822 (Fab, V domains shown)
VH: B2 VH with A97G, G99S, L100G, E101P, S103L, N105M, L108F, Y110F
VL: B1 VL
notes: as for B2
- Kd [2]: > 50 µM
- binding result [2]: no binding (tested: > 50,000 nM)

B16: bH1 Fab H3 variant 14_0688 (Fab, V domains shown)
VH: B2 VH with G99S, L100G, E101R, R102D, S103A, G104Y, L108F, Y110S
VL: B1 VL
notes: as for B2
- Kd [2]: 3.6 µM
